We go through 13 molecules from US20220267464A1 (Hoffmann-La Roche, published 2022).

Substitutions are numbered along the chain they refer to. In names and notes the source's numbering stands.

T1: human CEA (CEACAM5), form in the assay not stated (human, UniProt P06731 35-685, limits assumed)
T1 sequence: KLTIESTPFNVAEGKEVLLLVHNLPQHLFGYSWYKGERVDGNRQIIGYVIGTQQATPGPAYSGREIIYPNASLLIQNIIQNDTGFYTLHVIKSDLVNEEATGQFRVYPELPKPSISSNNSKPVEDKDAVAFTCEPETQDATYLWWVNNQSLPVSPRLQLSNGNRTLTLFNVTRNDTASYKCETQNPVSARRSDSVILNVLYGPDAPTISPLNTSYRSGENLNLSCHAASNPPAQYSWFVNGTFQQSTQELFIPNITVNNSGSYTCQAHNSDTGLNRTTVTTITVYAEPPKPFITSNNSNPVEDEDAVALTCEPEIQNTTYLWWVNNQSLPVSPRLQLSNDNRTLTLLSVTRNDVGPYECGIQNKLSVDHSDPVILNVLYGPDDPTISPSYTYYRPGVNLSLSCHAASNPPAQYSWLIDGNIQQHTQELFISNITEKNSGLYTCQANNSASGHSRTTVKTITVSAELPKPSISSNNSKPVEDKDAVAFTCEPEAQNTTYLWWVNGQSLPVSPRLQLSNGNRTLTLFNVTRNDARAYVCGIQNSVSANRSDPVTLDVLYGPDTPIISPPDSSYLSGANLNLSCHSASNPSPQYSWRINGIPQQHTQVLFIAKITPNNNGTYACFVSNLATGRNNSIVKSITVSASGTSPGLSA

T2: hu N(A2-B2)A-avi-His (human, biotin on the avi tag where used biotinylated)
T2 construct: chimeric soluble antigen; also called hu N(A2-B2)A-avi-His B; human CEA (A2 domain)
T2 chain: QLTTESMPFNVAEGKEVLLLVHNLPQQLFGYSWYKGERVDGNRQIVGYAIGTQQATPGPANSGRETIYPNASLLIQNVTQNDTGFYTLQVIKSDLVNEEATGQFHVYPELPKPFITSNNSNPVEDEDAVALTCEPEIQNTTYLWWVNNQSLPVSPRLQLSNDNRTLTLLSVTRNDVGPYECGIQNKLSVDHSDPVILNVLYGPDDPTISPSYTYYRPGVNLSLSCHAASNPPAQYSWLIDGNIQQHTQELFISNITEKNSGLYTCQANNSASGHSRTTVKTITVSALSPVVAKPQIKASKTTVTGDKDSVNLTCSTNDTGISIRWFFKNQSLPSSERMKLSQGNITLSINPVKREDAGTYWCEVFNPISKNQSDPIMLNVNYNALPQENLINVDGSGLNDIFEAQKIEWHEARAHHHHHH

T3: NA(B2)A-avi-His (human, biotin on the avi tag)
T3 construct: chimeric soluble control antigen without the CEACAM5 A2 domain
T3 chain: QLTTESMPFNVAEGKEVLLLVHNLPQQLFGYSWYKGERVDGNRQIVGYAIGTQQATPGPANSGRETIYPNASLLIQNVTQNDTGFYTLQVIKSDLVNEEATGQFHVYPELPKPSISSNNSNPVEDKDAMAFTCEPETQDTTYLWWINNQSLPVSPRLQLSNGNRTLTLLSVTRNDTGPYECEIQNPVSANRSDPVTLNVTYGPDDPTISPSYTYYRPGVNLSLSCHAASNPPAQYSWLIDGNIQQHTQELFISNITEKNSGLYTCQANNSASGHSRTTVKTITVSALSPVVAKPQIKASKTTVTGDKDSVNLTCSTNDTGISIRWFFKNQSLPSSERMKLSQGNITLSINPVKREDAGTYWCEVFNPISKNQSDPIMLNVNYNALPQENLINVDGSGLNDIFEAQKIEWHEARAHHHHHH

B1: A5H1EL1D humanized anti-CEA antibody (format in the assay not stated) (antibody, V domains shown)
VH: EVQLLESGGGLVQPGGSLRLSCAASGFTFTDYYMNWVRQAPGKGLEWLGFIGNKANAYTTEYSASVKGRFTISRDKSKNTLYLQMNSLRAEDTATYYCTRDRGLRFYFDYWGQGTTVTVSS
VL: EIVLTQSPATLSLSPGERATLSCRASSSVTYIHWYQQKPGQAPRSWIYATSNLASGIPARFSGSGSGTDFTLTISSLEPEDFAVYYCQHWSSKPPTFGQGTKLEIK
notes: also called huA5B7; 3-23A5-1E / A5-L1D
B2: A5B7 parental murine anti-CEA antibody (antibody, V domains shown)
VH: EVKLVESGGGLVQPGGSLRLSCATSGFTFTDYYMNWVRQPPGKALEWLGFIGNKANGYTTEYSASVKGRFTISRDKSQSILYLQMNTLRAEDSATYYCTRDRGLRFYFDYWGQGTTLTVSS
VL: QTVLSQSPAILSASPGEKVTMTCRASSSVTYIHWYQQKPGSSPKSWIYATSNLASGVPARFSGSGSGTSYSLTISRVEAEDAATYYCQHWSSKPPTFGGGTKLEIK
notes: also called parental chimeric antibody
B3: P1AE4140 (Fab, V domains shown)
VH: B1 VH with L48V, A57G, K76N, T95V
VL: B1 VL
notes: Fab fragment; also called Fab derived from P1AE2177
B4: P1AE4143 (Fab, V domains shown)
VH: B1 VH with L48V, A57G, T95V, T99A
VL: B1 VL
notes: Fab fragment; also called Fab derived from P1AE2182
B5: P1AE4142 (Fab, V domains shown)
VH: B1 VH with L48V, A57G, T95V, T99A
VL: B1 VL with Q41S, A42S, R44K
notes: Fab fragment; also called Fab derived from P1AE2181
B6: P1AE4141 (Fab, V domains shown)
VH: B1 VH with L48V, A57G, T95V, T99A
VL: B1 VL with E1Q, I2T, Q41S, A42S, R44K, F70Y
notes: Fab fragment; also called Fab derived from P1AE2179
B7: P006.038 Fab (Fab, V domains shown)
VH: B1 VH with L104I, Y107G
VL: B1 VL with K93V
notes: Fab from E. coli (supernatant or IMAC-purified); Flag tag; also called CEA (P006.038)
B8: P002.139 Fab (Fab, V domains shown)
VH: B1 VH with T28Y, Y33A, F50V, G52S
VL: B1 VL with R24H
notes: Fab from E. coli (supernatant or IMAC-purified); Flag tag; also called CEA (P002.139)
B9: P005.102 Fab (Fab, V domains shown)
VH: B1 VH with L104I, Y107Q
VL: B1 VL with P94S
notes: Fab from E. coli (supernatant or IMAC-purified); Flag tag; also called CEA (P005.102)
B10: P001.177 Fab (Fab, V domains shown)
VH: B1 VH with T28Y, G52S
VL: B1 VL
notes: Fab from E. coli (supernatant or IMAC-purified); Flag tag; also called CEA (P001.177)
B11: P005.103 Fab (Fab, V domains shown)
VH: B1 VH with L104I
VL: B1 VL with K93I, P94S
notes: Fab from E. coli (supernatant or IMAC-purified); Flag tag; also called CEA (P005.103)
B12: P005.097 Fab (Fab, V domains shown)
VH: B1 VH with Y107S
VL: B1 VL with K93Q
notes: Fab from E. coli (supernatant or IMAC-purified); Flag tag; also called CEA (P005.097)
B13: A5H1EL1D Fab (phagemid-derived) (Fab, V domains shown)
VH: B1 VH
VL: B1 VL
notes: Flag tag; also called parental humanized clone A5H1EL1D

The target in one assay is T1, human CEA (CEACAM5), form in the assay …. Description: SPR. For orientation: Surface plasmon resonance follows binding to a sensor surface in real time, without labels.
Turning to B1, the Kd was roughly 2.5 nM.
As to B2, the equilibrium dissociation constant (Kd) is roughly 0.8 nM.

A further assay addresses T2, hu N(A2-B2)A-avi-His. The assay can be described thus: SPR (Biacore T200), antigen on CM5 chip, Fab as analyte. From the text:
Data were double-referenced against the unimmobilized flow cell 1 and a zero concentration of the analyte. The sensorgrams of the analytes were fitted to a simple 1:1 Langmuir interaction model.
For the molecule B3, the dissociation constant (Kd) was 7.62 nM.
On to B4, for which binding was characterised by a dissociation constant (Kd) of 2.92 nM.
For B5, the Kd amounted to 2.64 nM.
The molecule B6 returned a Kd of 1.83 nM.

The target of a further assay is T3, NA(B2)A-avi-His. The assay can be described thus: SPR (ProteOn), Fab in bacterial supernatant, 2000 RU antigen. From the text:
(§1) For this experiment, about 2000, 1000, and 500 RU of biotinylated N(A2B2)A-avi-His were immobilized on 3 channels using a Streptavidin-coated NLC chip in vertical orientation. As a control for non-specific binding, 2000 RU of biotinylated NA(B2)A-avi-His protein was immobilized on channel 4. For the off-rate analysis of the identified ELISA-positive clones, injection direction was changed to horizontal orientation. Before injection, each Fab-containing bacterial supernatant was filtered and 3-fold diluted with PBS. The association time was 100 s at 100 μl/minute and dissociation times were either 600 or 1200 s. Bacterial supernatant without Fab fragment was used for referencing. Regeneration was performed with 10 mM glycine pH 1.5 for 35 s at 50 μl/min (vertical orientation).
(§2) Dissociation rate constants (koff) were calculated using a simple one-to-one Langmuir binding model in ProteOn Manager v3.1 software by simultaneously fitting the sensorgrams. […] Shortlisted clones were re-evaluated in an additional SPR experiments under the same conditions. […] Bacterial supernatant without Fab fragment was used for referencing.
On to B7, for which the binding result is reported as “no binding”.
On the same count and under the same terms, then B8, with “no binding”.
Take B9: the binding result is “no binding”.
The same measure, in the same setting: to B10 belongs “no binding”; to B11, “no binding”; to B12, “no binding”.

Another assay has as its target T2, hu N(A2-B2)A-avi-His. Description: SPR (ProteOn XPR36), purified Fab, biotinylated antigen on NLC chip. As for the experimental part:
Affinity (KD) of purified Fab fragments was measured by surface plasmon resonance using a Proteon XPR36 machine using the same setup as described before.
About 2000, 1000, 500, and 250 RU of biotinylated N(A2B2)A-avi-His were immobilized on 4 channels of a Streptavidin-coated NLC chip in vertical orientation. As a control for non-specific binding, 2000 RU of biotinylated NA(B2)A-avi-His protein was immobilized on channel 5. For the determination of the affinity (KD) of the purified clones, injection direction was changed to horizontal orientation. Two-fold dilution series of purified Fab fragments (varying concentration ranges between 100 and 3 nM) were injected simultaneously at 100 μl/min along separate channels 1-5, with association times of 100 s, and dissociation times of 1200 s. Buffer (PBST) was injected along the sixth channel to provide an “in-line” blank for referencing. Regeneration was performed with 10 mM glycine pH 1.5 for 35 s at 50 μl/min (vertical orientation).
Association rate constants (kon) and dissociation rate constants (koff) were calculated using a simple one-to-one Langmuir binding model in ProteOn Manager v3.1 software by simultaneously fitting the association and dissociation sensorgrams. The equilibrium dissociation constant (KD) was calculated as the ratio koff/kon.
With B13, binding was characterised by a dissociation constant (Kd) of 2.3 nM, the dissociation rate constant (koff) was 0.000248 s⁻¹ and the association rate constant (kon) was 108000 M⁻¹ s⁻¹.
The molecule B7 had a Kd of 0.25 nM, a koff of 5.78e-05 s⁻¹ and an on-rate (kon) of 225000 M⁻¹ s⁻¹.
As to B8, the affinity, expressed as Kd, was 0.63 nM; the koff came out at 6.53e-05 s⁻¹; the kon was determined as 105000 M⁻¹ s⁻¹.
The matching figures for B9: 0.29 nM, 3.92e-05 s⁻¹ and 134000 M⁻¹ s⁻¹.
For B10, the dissociation constant Kd came to 0.29 nM, the off-rate constant (koff) was determined as 7.85e-05 s⁻¹ and the kon was 267000 M⁻¹ s⁻¹.
The molecule B11 displayed a Kd of 0.5 nM, a koff of 4.99e-05 s⁻¹ and an association rate constant (kon) of 100000 M⁻¹ s⁻¹.
The corresponding values for B12 are 0.91 nM, 8.54e-05 s⁻¹ and 94000 M⁻¹ s⁻¹.

For the next assay, the target named is T2, hu N(A2-B2)A-avi-His. Description: SPR (ProteOn XPR36), Fab in bacterial supernatant, biotinylated antigen on NLC chip.
Text: as §1, §2
The molecule B13 returned a koff of 0.00031 s⁻¹.
On the same count and under the same terms, then B7, with 7.41e-05 s⁻¹; and B8, with 6.47e-05 s⁻¹.
Turning to B9, the koff turned out to be 4.24e-05 s⁻¹.
In turn, B10 gave a koff of 9.81e-05 s⁻¹.
B11 showed a koff of 5.37e-05 s⁻¹. Against the preceding molecule, the koff is about 1.8-fold lower.
Still for that read-out and setting: to B12 belongs 8.87e-05 s⁻¹.

As usually defined, the Kd is a measure of binding affinity in units of concentration. A word on the koff: it is the first-order rate constant of dissociation. A higher koff goes with a short-lived complex. As usually defined, the kon is the rate constant with which the complex forms. A lower kon goes with slow association.
